Measurements: paper PMC3492304, “Characterization of Arabidopsis FPS Isozymes and FPS Gene Expression Analysis Provide Insight into the Biosynthesis of Isoprenoid Precursors in Seeds” (PLoS ONE, 2012)

T1: FPS1S (Arabidopsis thaliana, UniProt Q09152)
T1 construct: gene FPS1; short isoform, 343 residues, lacking the 41-residue N-terminal extension of FPS1L; cDNA pcNC3; GST fusion in E. coli BL21(DE3), GST removed with Factor Xa leaving no extra residues; homodimer
T1 sequence (Q09152 1-343 isoform Q09152-2): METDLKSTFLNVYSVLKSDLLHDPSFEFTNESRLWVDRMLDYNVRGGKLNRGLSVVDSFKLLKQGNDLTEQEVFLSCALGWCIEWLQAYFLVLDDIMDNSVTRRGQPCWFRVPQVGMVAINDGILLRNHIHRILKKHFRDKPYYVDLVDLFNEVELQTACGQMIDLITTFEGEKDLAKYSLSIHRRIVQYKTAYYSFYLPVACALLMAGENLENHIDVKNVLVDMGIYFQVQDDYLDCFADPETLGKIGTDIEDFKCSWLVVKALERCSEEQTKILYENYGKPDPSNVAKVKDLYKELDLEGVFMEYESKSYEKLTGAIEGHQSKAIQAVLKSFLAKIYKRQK

T2: FPS2 (Arabidopsis thaliana, UniProt Q43315)
T2 construct: full length, 342 residues; cDNA pcNC2; GST fusion in E. coli BL21(DE3), GST removed with Factor Xa leaving no extra residues; homodimer
T2 sequence (Q43315 1-342): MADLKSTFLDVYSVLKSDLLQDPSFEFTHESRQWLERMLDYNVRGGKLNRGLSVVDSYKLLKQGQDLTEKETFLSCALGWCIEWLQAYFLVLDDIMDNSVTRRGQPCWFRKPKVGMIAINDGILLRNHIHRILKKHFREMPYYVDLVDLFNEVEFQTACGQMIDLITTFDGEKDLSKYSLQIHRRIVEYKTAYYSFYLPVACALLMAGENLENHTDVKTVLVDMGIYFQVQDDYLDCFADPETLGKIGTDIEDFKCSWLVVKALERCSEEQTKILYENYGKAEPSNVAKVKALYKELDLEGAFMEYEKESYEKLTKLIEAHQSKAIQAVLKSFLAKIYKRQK


Columns and labels:
FPS1S = molecular target: T1, FPS1S; test: radiometric [[…]-14C]IPP incorporation, acid hydrolysis and hexane extraction; assay type: biochemical; conditions: product inhibition; FPP 0 to 1 mM; PIPES pH 7.0, 37°C
FPS2 = molecular target: T2, FPS2; test: as above; assay type: biochemical; conditions: product inhibition; FPP 0 to 1 mM; PIPES pH 7.0, 37°C
purified protein [1] = substrate: C=C(C)CCO[P@@](=O)(O)OP(=O)(O)O; test: purified protein; conditions: 200 µM DMAPP, 4 mM MgCl2, PIPES pH 7.0, 37°C, labelled compound, apparent Km, kcat per dimer
purified protein [2] = substrate: CC(C)=CCC/C(C)=C/COP(=O)(O)OP(=O)(O)O; test: purified protein; assay type: biochemical, Arabidopsis thaliana; conditions: 100 µM IPP, 4 mM MgCl2, PIPES pH 7.0, 37°C, apparent Km, kcat per dimer
purified protein [3] = substrate: CC(C)=CCOP(=O)(O)OP(=O)(O)O; test: purified protein; assay type: biochemical, Arabidopsis thaliana; conditions: 100 µM IPP, 4 mM MgCl2, PIPES pH 7.0, 37°C, apparent Km, kcat per dimer

| % reduction of activity at 1 mM (FPS1S) | % reduction of activity at 1 mM (FPS2) | Molecule | Km (purified protein [1]) | kcat (purified protein [1]) | kcat/Km (purified protein [1]) | Km (purified protein [2]) | kcat (purified protein [2]) | kcat/Km (purified protein [2]) | Km (purified protein [3]) | kcat (purified protein [3]) | kcat/Km (purified protein [3]) |
| --- | --- | --- | --- | --- | --- | --- | --- | --- | --- | --- | --- |
| ~ 30% | ~ 30% | CC(C)=CCC/C(C)=C/CC/C(C)=C/COP(=O)(O)OP(=O)(O)O [FPP] | – | – | – | – | – | – | – | – | – |
| – | – | FPS1S (Arabidopsis thaliana) (protein, short isoform, 343 residues, lacking the 41-residue N-terminal extension of FPS1L; cDNA pcNC3; GST fusion in E. coli BL21(DE3), GST removed with Factor Xa leaving no extra residues; homodimer) METDLKSTFLNVYSVLKSDLLHDPSFEFTNESRLWVDRMLDYNVRGGKLNRGLSVVDSFKLLKQGNDLTEQEVFLSCALGWCIEWLQAYFLVLDDIMDNSVTRRGQPCWFRVPQVGMVAINDGILLRNHIHRILKKHFRDKPYYVDLVDLFNEVELQTACGQMIDLITTFEGEKDLAKYSLSIHRRIVQYKTAYYSFYLPVACALLMAGENLENHIDVKNVLVDMGIYFQVQDDYLDCFADPETLGKIGTDIEDFKCSWLVVKALERCSEEQTKILYENYGKPDPSNVAKVKDLYKELDLEGVFMEYESKSYEKLTGAIEGHQSKAIQAVLKSFLAKIYKRQK | 23.1 ± 0.4 µM | 1.04 s⁻¹ | 45000 M⁻¹ s⁻¹ | 8.3 ± 1.2 µM | 0.607 s⁻¹ | 73300 M⁻¹ s⁻¹ | 22.7 ± 2.1 µM | 0.87 s⁻¹ | 38300 M⁻¹ s⁻¹ |
| – | – | FPS2 (Arabidopsis thaliana) (protein, full length, 342 residues; cDNA pcNC2; GST fusion in E. coli BL21(DE3), GST removed with Factor Xa leaving no extra residues; homodimer) MADLKSTFLDVYSVLKSDLLQDPSFEFTHESRQWLERMLDYNVRGGKLNRGLSVVDSYKLLKQGQDLTEKETFLSCALGWCIEWLQAYFLVLDDIMDNSVTRRGQPCWFRKPKVGMIAINDGILLRNHIHRILKKHFREMPYYVDLVDLFNEVEFQTACGQMIDLITTFDGEKDLSKYSLQIHRRIVEYKTAYYSFYLPVACALLMAGENLENHTDVKTVLVDMGIYFQVQDDYLDCFADPETLGKIGTDIEDFKCSWLVVKALERCSEEQTKILYENYGKAEPSNVAKVKALYKELDLEGAFMEYEKESYEKLTKLIEAHQSKAIQAVLKSFLAKIYKRQK | 31.3 ± 0.5 µM | 4.48 s⁻¹ | 143000 M⁻¹ s⁻¹ | 11.3 ± 1.0 µM | 2.21 s⁻¹ | 195000 M⁻¹ s⁻¹ | 31.5 ± 0.5 µM | 3.29 s⁻¹ | 103000 M⁻¹ s⁻¹ |
